Results as given in article PMC7738311.

Target: His-tagged MafAI (MafAI.1 of N. meningitidis BB-1, from plasmid pEN-mafAI-H) (Neisseria meningitidis strain BB-1)
Experiment: semi-native SDS-PAGE with Western blot (heat modifiability); cell envelopes of BB-1, samples heated at 95°C or not before electrophoresis; sample buffer with 0.2% SDS and no β-mercaptoethanol, run on ice; detected with anti-His-tag antibodies (MafAI) or anti-MafAII antiserum

“His-tagged MafAI (MafAI.1 of N. meningitidis BB-1, from plasmid pEN-mafAI-H) (natural protein)” was tested, and the stoichiometry N was 8 subunits.
